Measured values taken from the supplement of paper PMC10567573.

B1: SLC22A15 (parent)
chain: IAQYALLGYFIRSWRTLAILVNLQ

Variants of: B1
Assay: protein stability index of a GFP-peptide fusion (GPS, HEK-293T) (PSI 1-6); higher = more stable
Settings: c terminus: a fixed tail appended
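Note: lentivirally expressed fusions sorted by FACS into six bins by GFP to DsRed ratio, PSI derived from sequencing read proportions per bin multiplied by bin number.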

Protein stability index of substitutions, site by site:
R15: Y 2.65, I 3.23
A18: H 2.25, D 2.57, C 2.44, F 3.68, G 3.28
I1: N 4.39, D 2.92, P 1.52, V 2.17
A5: S 2.48, E 1.82, K 2.1, I 2.52, R 2.33, G 3.8
W14: T 2.6, N 3.47, M 2.62, G 3.14, R 2.52, E 1.91, H 4.19, V 2.46, C 4, D 2.61, Q 3.34, F 2.86, L 3.89, Y 3.53, I 3.04, P 3.8, K 1.79
G8: Q 3.07, F 2.71, N 1.67, C 2.42, K 1.71, H 2.21, M 3.1, V 2.97, P 1.82, S 3.52, L 1.88, I 3.12, E 1.83, Y 1.76
L6: M 3.42, P 2.95, S 2.22, I 3.23, E 2.55, Q 2.46, Y 2.49, G 4.36, K 2.31, T 4.1, H 1.67, N 2.26, F 2.34, R 4.15
T16: V 3.34, C 4.17, M 3.23, G 2.8, E 2.07, S 3.05, K 1.98, N 2.63, L 2.43, D 1.58, A 3.28, Q 3.17, Y 3.88, I 4.01, H 3.46, P 5.02, R 3.13
L17: E 3.59, M 2.57, W 2.85, Y 2.18, T 4.02, Q 2.85, V 4.09, S 3.35, G 3.63, H 3.02, D 2.83, F 2.3, A 3.45, I 2.52, K 2.4, P 2.05, R 1.98
Y9: G 3.34, A 1.47, C 2.75, I 2.71, E 2.03, N 2.22, W 2.92, D 2.57, K 1.29, Q 4.48
S13: K 1.4, R 3.53, G 2.4, M 3.12, N 2.56, P 2, D 3.34, H 3.68, Y 2.3, F 2.29, C 3.26, T 3.14, W 2.3, Q 2.61, V 2.11, I 3.82, L 4.37, A 2.29
F10: C 2.86, T 4.13, H 3.27, E 4.46, A 3.58, Q 3.4, P 2.24, G 1.67, I 4.57, L 3.4, K 2.44, V 3.1
A2: F 1.95, T 3.18, P 4.19, G 2.41, R 3.65, M 3.88, V 2.88, K 2.18, H 2.48, I 3.22, S 2.1, N 4.69, E 2.65
Y4: A 3, W 2.78, E 3.39, N 4.26, P 4.01, I 1.57, C 3.29, F 3.81, Q 2.44
L7: Q 2.52, W 2.78, C 3.99, Y 2.5, I 1.71, S 3.26, N 3.3, M 2.97, D 2.67
